The text below walks through data of article PMC10850970, “Characterization of N-glycosylation and its functional role in SIDT1-Mediated RNA uptake”.

One data set concerns the target T1, SIDT1 ECD (Homo sapiens, UniProt Q9NXL6 23-310).
T1 sequence: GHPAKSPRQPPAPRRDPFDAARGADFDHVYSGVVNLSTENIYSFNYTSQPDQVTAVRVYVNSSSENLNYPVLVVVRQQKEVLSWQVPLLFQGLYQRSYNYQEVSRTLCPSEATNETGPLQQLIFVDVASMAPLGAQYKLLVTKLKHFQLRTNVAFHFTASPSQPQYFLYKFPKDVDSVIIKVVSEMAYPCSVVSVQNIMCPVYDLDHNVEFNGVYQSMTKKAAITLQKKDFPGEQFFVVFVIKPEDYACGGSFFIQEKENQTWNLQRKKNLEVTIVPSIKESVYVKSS
As to the kind of experiment: EMSA; pH 5.5; EMSA: 40 mM Tris-acetate pH 5.5, 100 mM NaCl, 2.5 mM EDTA, 5% glycerol, RT 30 min, 2.5 uM RNA; MST: 25 mM MES pH 5.5, 100 mM NaCl, 0.05% Tween-20, 25 C, 5 nM labeled protein. The conditions noted are these: protein: recombinant; C-terminal 6xHis; label: 5'-FAM; single strand. (A gel shift assay detects complexes by their altered migration in electrophoresis.)

The target in another data set is T2, SIDT1 ECD-Fc (Homo sapiens, UniProt Q9NXL6 23-310).
T2 sequence: T1 sequence
As to the kind of experiment: EMSA; pH 5.5; legend says FAM-labeled RNA; EMSA: 40 mM Tris-acetate pH 5.5, 100 mM NaCl, 2.5 mM EDTA, 5% glycerol, RT 30 min, 2.5 uM RNA; MST: 25 mM MES pH 5.5, 100 mM NaCl, 0.05% Tween-20, 25 C, 5 nM labeled protein. To be noted: protein: recombinant; tags: C-terminal Fc; chain copies: 2; label: 5'-FAM; single strand.

Data set [1] can be described thus: precipitation after deglycosylation. The conditions noted are these: glycan lost; control: untreated purified SIDT1ECD.
Data set [2] is described as follows: Amplex Red phospholipase assay. The conditions noted are these: glycan lost; control: untreated full-length SIDT1.
The nature of data set [3]: differential scanning fluorometry (Tycho). The conditions noted are these: glycan changed form; control: SIDT1ECD expressed without kifunensine, same pH. (In general: DSF heats the sample and reads unfolding from a dye or from intrinsic fluorescence.)
Data set [4] can be described thus: Western blot of cells and medium, HEK293F. To be noted: glycan lost; control: WT SIDT1ECD. A general note: In western blotting, separated proteins are transferred to a membrane and probed.
Data set [5] can be described thus: 0-4 h incubation at pH 3.5, SDS-PAGE. The conditions noted are these: glycan changed form; control: SIDT1ECD expressed without kifunensine.

UCGCUUGGUGCAGAUCGGGAC (ssRNA) [FAM-ssRNA 21 nt]: the binding result with SIDT1 ECD and in the data set with SIDT1 ECD-Fc was “binds” throughout.

B1: SIDT1: PNGase F (protein)
parent chain: MRGCLRLALLCALPWLLLAASPGHPAKSPRQPPAPRRDPFDAARGADFDHVYSGVVNLSTENIYSFNYTSQPDQVTAVRVYVNSSSENLNYPVLVVVRQQKEVLSWQVPLLFQGLYQRSYNYQEVSRTLCPSEATNETGPLQQLIFVDVASMAPLGAQYKLLVTKLKHFQLRTNVAFHFTASPSQPQYFLYKFPKDVDSVIIKVVSEMAYPCSVVSVQNIMCPVYDLDHNVEFNGVYQSMTKKAAITLQKKDFPGEQFFVVFVIKPEDYACGGSFFIQEKENQTWNLQRKKNLEVTIVPSIKESVYVKSSLFSVFIFLSFYLGCLLVGFVHYLRFQRKSIDGSFGSNDGSGNMVASHPIAASTPEGSNYGTIDESSSSPGRQMSSSDGGPPGQSDTDSSVEESDFDTMPDIESDKNIIRTKMFLYLSDLSRKDRRIVSKKYKIYFWNIITIAVFYALPVIQLVITYQTVVNVTGNQDICYYNFLCAHPLGVLSAFNNILSNLGHVLLGFLFLLIVLRRDILHRRALEAKDIFAVEYGIPKHFGLFYAMGIALMMEGVLSACYHVCPNYSNFQFDTSFMYMIAGLCMLKLYQTRHPDINASAYSAYASFAVVIMVTVLGVVFGKNDVWFWVIFSAIHVLASLALSTQIYYMGRFKIDLGIFRRAAMVFYTDCIQQCSRPLYMDRMVLLVVGNLVNWSFALFGLIYRPRDFASYMLGIFICNLLLYLAFYIIMKLRSSEKVLPVPLFCIVATAVMWAAALYFFFQNLSSWEGTPAESREKNRECILLDFFDDHDIWHFLSATALFFSFLVLLTLDDDLDVVRRDQIPVF
For the molecule B1, the stability_or_folding result in data set [1] is on record as “decreases”. Also, in data set [2], the enzymatic_activity result is given as “no change”.

B2: SIDT1: kifunensine, pH 3.5 (protein)
parent chain: B1 parent chain
Take B2: the “stability_or_folding, Tm” value in data set [3] is on record as “decreases, decrease of 5.4 vs 55.1 (pH 7.5), 60.5 (pH 5.5), 61.1 (pH 3.5)”.

B3: SIDT1: N67Q (protein)
parent chain: B1 parent chain
For B3, in data set [4], the expression_or_secretion entry is on record as “decreases”.

B4: SIDT1: kifunensine, pH 7.5 (protein)
parent chain: B1 parent chain
As for B4, the “stability_or_folding, Tm” value in data set [3] is recorded as “decreases, decrease of 4.7 vs 55.1 (pH 7.5), 60.5 (pH 5.5), 61.1 (pH 3.5)”.

B5: SIDT1: SIDT1ECD mutant (all N to Q) (protein)
parent chain: B1 parent chain
Regarding B5, in data set [4], the expression_or_secretion entry is “decreases”.

B6: SIDT1: N136Q (protein)
parent chain: B1 parent chain
With B6, in data set [4], the expression_or_secretion result was “decreases”.

B7: SIDT1: kifunensine (protein)
parent chain: B1 parent chain
In the case of B7, the degradation_or_half_life result in data set [5] is recorded as “increases”.

B8: SIDT1: N57Q (protein)
parent chain: B1 parent chain
With B8, the expression_or_secretion entry in data set [4] is “decreases”.

B9: SIDT1: kifunensine, pH 5.5 (protein)
parent chain: B1 parent chain
Turning to B9, the “stability_or_folding, Tm” value in data set [3] is “decreases, decrease of 1.7 vs 55.1 (pH 7.5), 60.5 (pH 5.5), 61.1 (pH 3.5)”.

B10: SIDT1: N282Q (protein)
parent chain: B1 parent chain
Turning to B10, the expression_or_secretion result in data set [4] is “no change”.

B11: SIDT1: N83Q (protein)
parent chain: B1 parent chain
As to B11, the expression_or_secretion entry in data set [4] was “no change”.
